Read-outs that look alike come from different tables or passages of the source.
What was measured:
[1] = target: T1, Human IL-2 Receptor alpha, Fc-Tag (Symansis, New Zealand) (human, UniProt P01589 22-240); assay: SPR; KD to IL-2Rα divided by KD to IL-2Rβ of the same compound
T1 construct: extracellular domain; Bought reagent; also called IL-2Rα; IL-2Rα-Fc; not shown: Fc-Tag (captured by anti-human IgG (Fc) antibody)
T1 sequence (looked up): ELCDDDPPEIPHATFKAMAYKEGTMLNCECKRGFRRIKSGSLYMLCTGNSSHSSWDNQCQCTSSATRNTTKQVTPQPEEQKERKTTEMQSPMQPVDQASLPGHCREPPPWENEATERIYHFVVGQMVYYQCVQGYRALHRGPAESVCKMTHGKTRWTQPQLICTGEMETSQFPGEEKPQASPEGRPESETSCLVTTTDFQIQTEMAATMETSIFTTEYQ
Procedure: (§1) For the determination of binding kinetics to IL-2Rα the following chip preparation was used: Human IL-2 Receptor alpha, Fc-Tag (Symansis, New Zealand) was diluted in HBS-EP running buffer (GE Healthcare, 10 mM HEPES, 150 mM NaCl, 3 mM EDTA, 0.05% Surfactant P20, pH 7.4) to approx. 0.67 µg/mL and immobilized at a flow rate of 50 µL/min for 60 s to achieve 80 - 100 response units (RU).
as §1, with “IL-2Rβ” for “IL-2Rα”, “beta,” for “alpha,”, “around 0.80” for “approx. 0.67”, “140” for “80”, “180” for “100”
(§2) (50 µL/min flow rate, 60 s contact time, 300 s dissociation time). Double referenced data (subtracted data from the reference flow cell and the buffer only samples) was analysed via a kinetic fit (1:1 binding model) to determine KD, kₐ and kd. Regeneration after each cycle was performed with 3 M MgCl₂.

[2] = target: T2, IL-2Rβγ (dimeric intermediate affinity IL-2 receptor), human, on cells (human, UniProt P14784 27-551; P31785 23-369); assay: cell-based or functional assay
T2 sequence (looked up) 1: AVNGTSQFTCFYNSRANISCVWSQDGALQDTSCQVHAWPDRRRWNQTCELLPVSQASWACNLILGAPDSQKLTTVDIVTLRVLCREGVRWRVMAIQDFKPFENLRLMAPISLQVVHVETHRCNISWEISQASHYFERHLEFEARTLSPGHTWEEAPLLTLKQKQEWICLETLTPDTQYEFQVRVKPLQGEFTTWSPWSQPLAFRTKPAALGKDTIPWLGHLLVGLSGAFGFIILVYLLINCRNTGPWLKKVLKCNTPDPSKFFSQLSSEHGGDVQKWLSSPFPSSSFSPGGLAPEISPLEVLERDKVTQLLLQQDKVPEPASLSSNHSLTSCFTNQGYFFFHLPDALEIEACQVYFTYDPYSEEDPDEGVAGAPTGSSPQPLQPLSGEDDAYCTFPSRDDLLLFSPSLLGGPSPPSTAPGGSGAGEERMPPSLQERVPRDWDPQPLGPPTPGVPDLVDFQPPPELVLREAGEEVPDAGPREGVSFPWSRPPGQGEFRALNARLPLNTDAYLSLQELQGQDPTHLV
T2 sequence (looked up) 2: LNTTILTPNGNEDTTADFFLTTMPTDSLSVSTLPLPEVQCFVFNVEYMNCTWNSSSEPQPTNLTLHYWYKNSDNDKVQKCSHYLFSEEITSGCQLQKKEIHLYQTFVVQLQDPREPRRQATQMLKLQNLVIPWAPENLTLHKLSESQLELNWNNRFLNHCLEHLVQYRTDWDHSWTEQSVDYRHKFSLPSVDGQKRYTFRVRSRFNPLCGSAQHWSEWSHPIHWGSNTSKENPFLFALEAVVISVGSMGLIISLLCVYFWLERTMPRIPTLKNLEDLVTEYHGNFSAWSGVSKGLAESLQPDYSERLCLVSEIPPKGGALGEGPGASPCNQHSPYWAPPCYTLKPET

[3] = target: T3, IL-2Rαβγ (trimeric high-affinity IL-2 receptor), human, on cells (human, UniProt P01589 22-272; P14784 27-551; P31785 23-369); assay: cell-based or functional assay
T3 sequence (looked up) 1: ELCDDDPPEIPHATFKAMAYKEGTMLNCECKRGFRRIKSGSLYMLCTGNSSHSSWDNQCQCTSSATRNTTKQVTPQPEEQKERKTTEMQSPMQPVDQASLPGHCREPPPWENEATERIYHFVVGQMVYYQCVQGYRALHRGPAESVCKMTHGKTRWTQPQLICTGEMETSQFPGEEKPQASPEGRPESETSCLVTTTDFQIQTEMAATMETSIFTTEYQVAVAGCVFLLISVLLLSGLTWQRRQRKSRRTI
T3 sequence (looked up) 2: T2 sequence (looked up) 1
T3 sequence (looked up) 3: T2 sequence (looked up) 2

[4] = target: T1, Human IL-2 Receptor alpha, Fc-Tag …; assay: calculated from the SPR KD values of Example 7; reference protein 5a
Procedure: as §1
as §1, with “IL-2Rβ” for “IL-2Rα”, “beta,” for “alpha,”, “around 0.80” for “approx. 0.67”, “140” for “80”, “180” for “100”
as §2

[5] = target: T4, Human IL-2 Receptor beta, Fc-Tag (Symansis, New Zealand) (human, UniProt P14784 27-240); assay: SPR (Biacore T200), IL-2Rβ-Fc captured on anti-human IgG (Fc) CM5 chip, IL-2 as analyte, multi-cycle kinetics, 1:1 kinetic fit, 25 C
T4 construct: extracellular domain; Bought reagent; also called IL-2Rβ; IL-2Rβ-Fc; not shown: Fc-Tag (captured by anti-human IgG (Fc) antibody)
T4 sequence (looked up): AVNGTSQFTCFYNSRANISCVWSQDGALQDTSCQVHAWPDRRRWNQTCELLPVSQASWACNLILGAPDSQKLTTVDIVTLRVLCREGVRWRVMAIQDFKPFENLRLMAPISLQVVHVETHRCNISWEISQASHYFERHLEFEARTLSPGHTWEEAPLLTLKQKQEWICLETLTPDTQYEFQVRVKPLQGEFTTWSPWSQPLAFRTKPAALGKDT
Procedure: as §1, with “IL-2Rβ” for “IL-2Rα”, “beta,” for “alpha,”, “around 0.80” for “approx. 0.67”, “140” for “80”, “180” for “100”
as §2

[6] = target: T2, IL-2Rβγ (dimeric intermediate affinity …); assay: cell-based or functional assay; remark: listed apart in the source
[7] = target: T5, IL-2-Rα/β/γ on the murine CTLL-2 T lymphocyte cell line (murine, UniProt P01590 22-268; P16297 27-539; P34902 23-369); assay: cell-based or functional assay
T5 sequence (looked up) 1: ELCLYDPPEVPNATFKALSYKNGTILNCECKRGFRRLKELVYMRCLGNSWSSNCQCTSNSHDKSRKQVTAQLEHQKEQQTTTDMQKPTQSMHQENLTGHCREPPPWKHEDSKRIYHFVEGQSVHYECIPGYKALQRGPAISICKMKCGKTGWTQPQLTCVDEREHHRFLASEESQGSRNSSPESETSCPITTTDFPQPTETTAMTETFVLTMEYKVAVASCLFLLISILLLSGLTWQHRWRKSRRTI
T5 sequence (looked up) 2: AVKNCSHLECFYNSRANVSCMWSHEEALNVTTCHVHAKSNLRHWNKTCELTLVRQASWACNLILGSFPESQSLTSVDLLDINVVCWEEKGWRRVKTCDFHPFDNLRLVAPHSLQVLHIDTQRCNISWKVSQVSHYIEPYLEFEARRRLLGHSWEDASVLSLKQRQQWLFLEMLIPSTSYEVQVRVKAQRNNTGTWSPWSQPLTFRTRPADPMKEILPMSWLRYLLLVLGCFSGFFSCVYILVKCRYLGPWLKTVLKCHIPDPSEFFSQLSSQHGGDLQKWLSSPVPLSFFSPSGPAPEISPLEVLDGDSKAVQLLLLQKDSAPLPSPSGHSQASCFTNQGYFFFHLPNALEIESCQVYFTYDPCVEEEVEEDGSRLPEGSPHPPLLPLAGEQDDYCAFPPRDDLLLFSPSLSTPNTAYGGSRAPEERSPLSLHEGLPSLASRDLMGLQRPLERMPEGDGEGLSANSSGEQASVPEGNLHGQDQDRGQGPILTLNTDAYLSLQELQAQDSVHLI
T5 sequence (looked up) 3: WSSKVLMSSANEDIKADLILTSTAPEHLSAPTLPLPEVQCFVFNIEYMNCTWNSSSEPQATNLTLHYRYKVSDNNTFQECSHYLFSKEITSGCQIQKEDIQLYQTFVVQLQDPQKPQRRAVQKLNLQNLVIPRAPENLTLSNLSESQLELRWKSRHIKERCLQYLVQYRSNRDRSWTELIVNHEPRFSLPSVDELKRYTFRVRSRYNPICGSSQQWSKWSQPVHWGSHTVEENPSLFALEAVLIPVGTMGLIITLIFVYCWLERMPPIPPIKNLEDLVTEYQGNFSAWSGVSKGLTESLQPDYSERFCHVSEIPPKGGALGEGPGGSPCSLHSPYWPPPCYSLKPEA

[8] = target: T2, IL-2Rβγ (dimeric intermediate affinity …); assay: cell-based or functional assay; remark: listed apart in the source
[9] = target: T3, IL-2Rαβγ (trimeric high-affinity IL-2 …); assay: cell-based or functional assay; remark: listed apart in the source
[10] = target: T2, IL-2Rβγ (dimeric intermediate affinity …); assay: cell-based or functional assay; remark: listed apart in the source
[11] = target: T3, IL-2Rαβγ (trimeric high-affinity IL-2 …); assay: cell-based or functional assay; remark: listed apart in the source

B1: protein 1f (ligand)
chain: APTSSSTKKTQLQLEHLLLDLQMILNGINNYKNPKLTFGNSTKFYMPKKATELKHLQCLEEELKPLEEVLNLAQSKNFHLRPRDLISNINVIVLELKGSETTFMCEYADETATIVEFLNRWITFSQSIISTLT
modifications: N-glycosylated at the introduced N-glycosylation site (motif FGNST, peptide LTFGNSTK; heterogeneous glycans); heterogeneous O-glycosylation at the wildtype O-glycosylation site
notes: also called N-glycosylated IL2 (1f)
[1]
  KD-Ratio (α/β): > 4.02
[2]
  Ave EC50, pSTAT5 MFI, CD8+ T cells (human whole blood): 54.8 ng/ml
  Ave EC50, pSTAT5 MFI, NK cells (human whole blood): 7.35 ng/ml
  Fold reduction in potency vs WT-IL2 (1d), pSTAT5 MFI, CD8+ T cells: 2.13 fold
  Fold reduction in potency vs WT-IL2 (1d), pSTAT5 MFI, NK cells: 1.22 fold
[3]
  Ave EC50, pSTAT5 MFI, T regulatory cells (human whole blood): 33.5 ng/ml
  Fold reduction in potency vs WT-IL2 (1d), pSTAT5 MFI, T regulatory cells: 372 fold
[4]
  ratio of Ratio protein 1f to Ratio protein 5a (KD to IL-2Rα / KD to IL-2Rβ): > 200
[5]
  Kd: 993 nM

B2: conjugate release mixture 8 (other)
chain: B1 chain
modifications: glycosylated as protein 6; residual conjugate 7 in the mixture carries one 40 kDa mPEG-linker on a primary amine of the N-terminus or a lysine side chain
[6]
  EC50 HH cells, STAT5 phosphorylation: 0.0398 µg/mL
[7]
  EC50 CTLL-2, STAT5 phosphorylation: 1.57 µg/mL
  Ratio (E50 CTLL-2 cells/EC50 HH cell): 39.5

B3: protein 1a (ligand)
chain: APTSSSTKKTQLQLEHLLLDLQMILNGINNYKNPKLTFGNSTKFYMPKKATELKHLQCLEEELKPLEEVLNLAQSKNFHLRPRDLISNINVIVLELKGSETTFMCEYADETATIVEFLNRWITFSQSIISTLTHHHHHH
modifications: N-glycosylated (at least 90% by SDS-PAGE shift, removed by PNGase F)
[8]
  Ave EC50, pSTAT5 percent positive, CD8+ T cells (human whole blood): 1.69 ng/ml
  Ave EC50, pSTAT5 percent positive, NK cells (human whole blood): 0.371 ng/ml
  Fold reduction in potency vs WT-IL2 (1d), pSTAT5 percent positive, CD8+ T cells: 1.58 fold
  Fold reduction in potency vs WT-IL2 (1d), pSTAT5 percent positive, NK cells: 2.01 fold
[9]
  Ave EC50, pSTAT5 percent positive, T regulatory cells (human whole blood): 1.06 ng/ml
  Fold reduction in potency vs WT-IL2 (1d), pSTAT5 percent positive, T regulatory cells: 598 fold
[10]
  Ave EC50, pSTAT5 MFI, CD8+ T cells (human whole blood): 12.6 ng/ml
  Ave EC50, pSTAT5 MFI, NK cells (human whole blood): 3.07 ng/ml
  Fold reduction in potency vs WT-IL2 (1d), pSTAT5 MFI, CD8+ T cells: 1.44 fold
  Fold reduction in potency vs WT-IL2 (1d), pSTAT5 MFI, NK cells: 1.34 fold
[11]
  Ave EC50, pSTAT5 MFI, T regulatory cells (human whole blood): 7.93 ng/ml
  Fold reduction in potency vs WT-IL2 (1d), pSTAT5 MFI, T regulatory cells: 437 fold

Reference: patent US20230340055A1 (published 2023)
